Test results: patent publication EP4745153A1, “GLP-1, GIP AND GCG RECEPTOR […] USE THEREOF” (Jiangsu Hengrui Pharmaceuticals Co., Ltd., priority 2023, dated 2025)
Like-named read-outs stand apart in the source and are kept apart here. Starred links: 1 amine or outer side, 2 acyl side, 3 side chain; linkers in the order of their positions; H or OH if unused. Non-standard residues stand in square brackets, D forms with d. Groups on a side chain read outwards from the residue. No end group written: not given here. *: point of attachment. C20 diacid = O=C(O)CCCCCCCCCCCCCCCCCCC(=O)*; γGlu = O=C(O)[C@H](CCC(=O)[*:2])N[*:1]; αMeK = C[C@](N)(CCCCN)C(=O)O; Iva = CC[C@](C)(N)C(=O)O; AEEA = NCCOCCOCC(=O)O; Aib = CC(C)(N)C(=O)O

T1: human glucose-dependent insulinotropic polypeptide receptor (human, UniProt P48546 22-466)
T1 sequence (looked up): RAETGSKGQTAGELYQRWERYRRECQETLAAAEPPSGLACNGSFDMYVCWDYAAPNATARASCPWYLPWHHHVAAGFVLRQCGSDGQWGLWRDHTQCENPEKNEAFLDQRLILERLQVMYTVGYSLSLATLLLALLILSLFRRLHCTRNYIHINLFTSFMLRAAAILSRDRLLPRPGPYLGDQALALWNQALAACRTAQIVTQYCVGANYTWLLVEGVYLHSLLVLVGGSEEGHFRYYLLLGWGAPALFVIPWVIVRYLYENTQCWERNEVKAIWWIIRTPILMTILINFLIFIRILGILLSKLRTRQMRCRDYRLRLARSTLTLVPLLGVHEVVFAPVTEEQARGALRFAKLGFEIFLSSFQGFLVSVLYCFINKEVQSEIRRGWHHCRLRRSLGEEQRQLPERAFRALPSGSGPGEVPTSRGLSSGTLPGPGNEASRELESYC


Assays:
Experiment in all cases: cell-based or functional assay
[1] = molecular target: T1, human glucose-dependent insulinotropic …
[2] = molecular target: human glucagon receptor (human, UniProt P47871 26-477)
[3] = molecular target: T1, human glucose-dependent insulinotropic …; remark: listed apart in the source
[4] = molecular target: human glucagon-like peptide-1 receptor (human, UniProt P43220 24-463)

human glucagon receptor, sequence (P47871 26-477): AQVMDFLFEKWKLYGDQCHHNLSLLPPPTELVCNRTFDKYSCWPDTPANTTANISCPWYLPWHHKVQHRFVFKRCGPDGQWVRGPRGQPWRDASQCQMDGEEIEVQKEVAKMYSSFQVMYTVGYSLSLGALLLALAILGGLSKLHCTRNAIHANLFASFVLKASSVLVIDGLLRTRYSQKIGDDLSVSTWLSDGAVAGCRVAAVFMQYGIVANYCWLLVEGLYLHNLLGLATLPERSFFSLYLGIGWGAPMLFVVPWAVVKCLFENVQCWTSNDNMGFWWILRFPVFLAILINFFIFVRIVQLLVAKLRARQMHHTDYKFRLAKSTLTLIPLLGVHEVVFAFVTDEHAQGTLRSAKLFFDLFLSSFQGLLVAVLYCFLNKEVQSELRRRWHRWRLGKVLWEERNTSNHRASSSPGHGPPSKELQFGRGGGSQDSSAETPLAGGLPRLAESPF

Row | Binder | Activity against human GIPR (EC50 nM) [1] [nM] | Activity against human GCGR (EC50 nM) [2] [nM] | Activity against human GIPR (EC50 nM) [3] [nM] | Activity against human GLP-1R (EC50 nM) [4] [nM]
1 | H[Aib]HGTFTSDYS[αMeK]YLEK([AEEA-AEEA-γGlu-C20 diacid])KAAQEFVEWLIAGGPSSGAPPPS-NH2 (N-terminus assumed; SMILES CC[C@H](C)[C@H](NC(=O)[C@H](CC(C)C)NC(=O)[C@H](Cc1c[nH]c2ccccc12)NC(=O)[C@H](CCC(=O)O)NC(=O)[C@@H](NC(=O)[C@H](Cc1ccccc1)NC(=O)[C@H](CCC(=O)O)NC(=O)[C@H](CCC(N)=O)NC(=O)[C@H](C)NC(=O)[C@H](C)NC(=O)[C@H](CCCCN)NC(=O)[C@H](CCCCNC(=O)COCCOCCNC(=O)COCCOCCNC(=O)CC[C@H](NC(=O)CCCCCCCCCCCCCCCCCCC(=O)O)C(=O)O)NC(=O)[C@H](CCC(=O)O)NC(=O)[C@H](CC(C)C)NC(=O)[C@H](Cc1ccc(O)cc1)NC(=O)[C@](C)(CCCCN)NC(=O)[C@H](CO)NC(=O)[C@H](Cc1ccc(O)cc1)NC(=O)[C@H](CC(=O)O)NC(=O)[C@H](CO)NC(=O)[C@@H](NC(=O)[C@H](Cc1ccccc1)NC(=O)[C@@H](NC(=O)CNC(=O)[C@H](Cc1c[nH]cn1)NC(=O)C(C)(C)NC(=O)[C@@H](N)Cc1c[nH]cn1)[C@@H](C)O)[C@@H](C)O)C(C)C)C(=O)N[C@@H](C)C(=O)NCC(=O)NCC(=O)N1CCC[C@H]1C(=O)N[C@@H](CO)C(=O)N[C@@H](CO)C(=O)NCC(=O)N[C@@H](C)C(=O)N1CCC[C@H]1C(=O)N1CCC[C@H]1C(=O)N1CCC[C@H]1C(=O)N[C@@H](CO)C(N)=O) [Compound No. 0111] | 0.024 | 0.552 | – | –
2 | H[Aib]HGTFTSDYS[αMeK]LLEK([AEEA-AEEA-γGlu-C20 diacid])QAA[Iva]EFVEWLLAGGPSSGAPPPS-NH2 [Compound No. 0128] | – | – | 0.0005 | 0.04
3 | H[Aib]HGTFTSDYS[αMeK]YLEK([AEEA-AEEA-γGlu-C20 diacid])KAQQEFVEWLLAGGPSSGAPPPS-NH2 [Compound No. 0113] | 0.015 | 5.91 | – | –
